B1: MAB4 (IgG1 kappa) (antibody, V domains shown)
VH: EVQLVESGGGLVQSGGSLRLSCAASGFSLSSYGVDWVRQAPGKGLEWVGVIWGGGGTYYASSLMGRFTISRDNSKNTLYLQMNSLRAEDTAVYYCAKHAYGHDGGFAMDYWGQGTLVTVSS
VL: EIVMTQSPATLSVSPGERATLSCRASESVSSNVAWYQQRPGQAPRLLIYGASNRATGIPARFSGSGSGTDFTLTISRLEPEDFAVYYCGQSYSYPFTFGQGTKLEIKR
B2: MAB5 (IgG1 kappa) (antibody, V domains shown)
VH: EVQLVESGGGLVQSGGSLRLSCAASGFSLSSYGVDWVRQAPGKGLEWLGVIWGGGGTYYTSSLMGRFTISRDNSKNTLYLQMNSLRAEDTAVYYCAKHAYGHDGGFAMDYWGQGTLVTVSS
VL: EIVMTQSPATLSVSPGERATLSCRASESVSSNVAWYQQRPGQAPRLLIYGASNRATGIPARFSGSGSGTDFTLTISRLEPEDFAVYYCGQSYSYPFTFGQGTKLEIKR
notes: also called MABS (misprint of MAB5)

How the values were obtained:
[1] = biological target: cyno GITR (cGITR), form not stated (cynomolgus monkey); test: Biacore (SPR)
[2] = biological target: T1, human GITR expressed on cells (human, UniProt Q9Y5U5 27-241); test: cell-based or functional assay
T1 sequence: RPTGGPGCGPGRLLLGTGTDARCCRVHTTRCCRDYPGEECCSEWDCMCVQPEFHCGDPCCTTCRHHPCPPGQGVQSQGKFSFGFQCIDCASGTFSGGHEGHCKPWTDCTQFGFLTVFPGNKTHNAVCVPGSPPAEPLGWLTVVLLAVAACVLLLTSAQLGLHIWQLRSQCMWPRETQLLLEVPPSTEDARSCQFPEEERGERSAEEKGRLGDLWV

[3] = biological target: T2, human GITR (hGITR), form not stated (human, UniProt Q9Y5U5 26-162, limits assumed); test: Biacore (SPR), IgG
T2 construct: the construct is not described
T2 sequence: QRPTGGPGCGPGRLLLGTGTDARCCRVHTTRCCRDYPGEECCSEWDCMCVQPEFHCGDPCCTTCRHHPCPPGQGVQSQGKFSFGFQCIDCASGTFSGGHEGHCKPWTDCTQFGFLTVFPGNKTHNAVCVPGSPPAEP

[4] = biological target: cyno GITR (cGITR), form not stated (cynomolgus monkey); test: Biacore (SPR), IgG
[5] = biological target: T3, mouse GITR extracellular domain (mouse, UniProt O35714 20-153); test: ELISA on coated GITR ECD
T3 construct: extracellular domain; also called murine GITR; rodent GITR
T3 sequence (looked up): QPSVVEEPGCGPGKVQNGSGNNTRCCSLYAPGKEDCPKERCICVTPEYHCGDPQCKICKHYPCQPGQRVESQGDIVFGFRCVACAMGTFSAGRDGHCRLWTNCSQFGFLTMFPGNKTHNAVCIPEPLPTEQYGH
Protocol: (§1) The plate was blocked with a solution of 1% BSA in PBS for one hour at room temperature and then rinsed three times with PBST. The MAB was then diluted to 0.5 μg/mL or 1 μg/mL in PBS and 20 μL was added to each well. The plate was incubated for 1 hour at room temperature and then washed three times with PBST. […] The plate was incubated for 1 hour at room temperature, and then washed six times with PBST. 25 μL of SureBlue TMB (KPL 52-00-02) substrate was added to each well and the plate was incubated for about 10 min at room temperature.

[6] = biological target: T4, rat GITR extracellular domain (rat, UniProt F7FFS7 65-198); test: ELISA on coated GITR ECD
T4 construct: also called rodent GITR
T4 sequence: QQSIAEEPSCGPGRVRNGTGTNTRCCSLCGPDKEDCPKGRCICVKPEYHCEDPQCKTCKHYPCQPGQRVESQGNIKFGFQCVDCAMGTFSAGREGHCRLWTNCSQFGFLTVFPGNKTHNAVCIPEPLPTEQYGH
Protocol: as §1

DcR2 = biological target: T5, DcR2 (human, UniProt Q9UBN6); test: specificity ELISA, bacterial lysate on HisGrab nickel plate
T5 sequence (receptor, looked up): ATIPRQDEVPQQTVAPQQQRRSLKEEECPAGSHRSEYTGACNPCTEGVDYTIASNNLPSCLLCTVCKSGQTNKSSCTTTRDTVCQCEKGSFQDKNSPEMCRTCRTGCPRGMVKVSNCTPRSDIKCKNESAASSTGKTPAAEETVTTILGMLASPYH
Protocol: (§2) For the specificity ELISA, a crude cell lysate was made from bacteria expressing members of the TNFRSF family. To prevent nonspecific binding to the plate 50 μL of 5% BSA was added per mL of bacterial lysate. […] The plate was then rinsed three times with PBST, then MAB was diluted to 0.5 μg/mL in 10% FBS in PBS and 100 μL was added to each well. The plate was incubated for 1 hour at room temperature and then rinsed three times with PBST. Anti-human kappa antibody (Sigma #A7164) conjugated to HRP was diluted 1:5000 in 1:1 PBST: 10% FBS in PBS and 100 μL added to each well. The plate was incubated for 1 hour at room temperature, and then washed three times with PBST. 100 μL of SureBlue TMB substrate was added to each well and the plate was incubated for about 10 min at room temperature before stopping the reaction with 100 μL /well of 2N H₂SO₄.

NGFR = biological target: T6, NGFR (human, UniProt P08138); test: as above
T6 sequence (receptor, looked up): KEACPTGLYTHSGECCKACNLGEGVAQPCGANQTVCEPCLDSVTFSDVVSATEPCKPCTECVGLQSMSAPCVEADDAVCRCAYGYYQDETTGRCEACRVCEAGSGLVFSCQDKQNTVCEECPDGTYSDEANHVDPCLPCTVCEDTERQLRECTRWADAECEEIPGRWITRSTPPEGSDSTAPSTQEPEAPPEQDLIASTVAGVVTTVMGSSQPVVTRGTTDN
Protocol: as §2

OX40 = biological target: T7, OX40 (human, UniProt P43489); test: as above
T7 sequence (receptor, looked up): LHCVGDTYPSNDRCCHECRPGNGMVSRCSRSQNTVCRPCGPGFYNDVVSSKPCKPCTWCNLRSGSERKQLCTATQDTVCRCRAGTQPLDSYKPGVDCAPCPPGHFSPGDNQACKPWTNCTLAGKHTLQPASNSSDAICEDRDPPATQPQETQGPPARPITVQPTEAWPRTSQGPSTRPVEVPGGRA
Protocol: as §2

DR3 = biological target: T8, DR3 (human, UniProt Q93038); test: as above
T8 sequence (receptor, looked up): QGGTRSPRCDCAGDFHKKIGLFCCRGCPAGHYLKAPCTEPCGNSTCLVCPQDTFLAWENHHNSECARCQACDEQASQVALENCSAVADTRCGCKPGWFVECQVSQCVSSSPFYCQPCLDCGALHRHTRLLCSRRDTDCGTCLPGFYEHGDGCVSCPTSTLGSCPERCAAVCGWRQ
Protocol: as §2

DR4 = biological target: T9, DR4 (human, UniProt O00220); test: as above
T9 sequence (receptor, looked up): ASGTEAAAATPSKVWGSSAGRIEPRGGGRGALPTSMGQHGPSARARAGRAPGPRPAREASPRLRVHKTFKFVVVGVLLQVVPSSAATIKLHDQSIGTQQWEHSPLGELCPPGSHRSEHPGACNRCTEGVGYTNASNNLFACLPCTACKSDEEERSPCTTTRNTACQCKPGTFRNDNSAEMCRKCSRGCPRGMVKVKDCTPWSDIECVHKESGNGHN
Protocol: as §2

Binder	fold lower binding affinity for cyno GITR than for human GITR [1] [fold]	EC50, NFκB-luciferase reporter in 293 cells overexpressing human GITR, antibody cross-linked [2] [nM]	Kd [3] [nM]	Kd [4] [nM]	binding result [5]	binding result [6]	binding result (DcR2)	binding result (NGFR)	binding result (OX40)	binding result (DR3)	binding result (DR4)
B1	2 to 3	~2.5	0.684	1.78	no binding (tested: not on the sheet; paragraph 336: 0.5 or 1 µg/mL)	no binding (tested: not on the sheet; paragraph 336: 0.5 or 1 µg/mL)	no binding (tested: not on the sheet; paragraph 335: 0.5 µg/mL)	no binding (tested: not on the sheet; paragraph 335: 0.5 µg/mL)	no binding (tested: not on the sheet; paragraph 335: 0.5 µg/mL)	no binding (tested: not on the sheet; paragraph 335: 0.5 µg/mL)	no binding (tested: not on the sheet; paragraph 335: 0.5 µg/mL)
B2	2 to 3	~2.5	0.973	1.87	no binding (tested: not on the sheet; paragraph 336: 0.5 or 1 µg/mL)	no binding (tested: not on the sheet; paragraph 336: 0.5 or 1 µg/mL)	no binding (tested: not on the sheet; paragraph 335: 0.5 µg/mL)	no binding (tested: not on the sheet; paragraph 335: 0.5 µg/mL)	no binding (tested: not on the sheet; paragraph 335: 0.5 µg/mL)	no binding (tested: not on the sheet; paragraph 335: 0.5 µg/mL)	no binding (tested: not on the sheet; paragraph 335: 0.5 µg/mL)

From patent publication US20170306037A1 (Novartis, published 2017)
